Measured values from the nanobody polyreactivity screen of Harvey et al. (2022).

Assay: yeast display, Sf9 membrane polyspecificity reagent, FACS + sequencing; frameworks hold sequencing errors
Outline: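 A synthetic nanobody library was expressed on Saccharomyces cerevisiae BJ5465 by galactose induction for 36–48 hours. The library was stained for 1 hour at 4 °C with 10% biotinylated, detergent-solubilized Sf9 membrane reagent and enriched with streptavidin microbeads before FACS. Low and high (top ~1%) gates were set on anti-HA fluorescence for expression and streptavidin fluorescence for reagent binding, and each polyreactivity label reflects the gate of origin.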

Row | Sequence | polyreactivity (PSR sort gate)
1 | QVQLVESGGGLVQAGGRLRLSCPASGSTFYYYGMGWYRQAHGKERELVAAINCSCGTTYYADSVKGRFTISRDNAKNTVYLQLNSLKPEDTAVYYCAAAFYIYGVEGDYWGQGTQVTVSS | low polyreactivity
2 | QVQLVESGGCLVQAGGSLRLSCAASGRISGFNAMGWYRQAPGKERELVAANSYRGGSTYADSVKGRFTISRVNAKNTVYLQMNSLKPEDTAVYYCAAQSYWTFHTYYYWGQGTQVTVSS | low polyreactivity
3 | QVELVESGGGLVQPGGRLRLSCAASGRIFRYNTMGWYRQAPGKEREFVAAITQRGVNTYYADSVKGRFTISRDNAKNTVYLQRNSLKPEDTAVYYCNAKRYSYWIYRAYDYWGQGTQVTVSS | low polyreactivity
4 | QVQHVESGGGLVQAGGNLRLSCPASGRTIYSYTMGWYRQTPGKERELVAAINRSGGRTYYADSVKGRFTISRDNAKNTVYLQMNSLKQEDTAVYYGNALEYYRYDYWGQGTQVTVSS | high polyreactivity
5 | QVQLVESGGGLVQAGGSLRLSCAASGSNSVYAMGWYRQAPGKERELVAAITISGGITYYADSVKGRFTIARDNAKNTVYLQMNSLKPEDTAVFYCNADQGSALRWSYDYWGQGTQVTVSS | low polyreactivity
6 | QVQLVESGGGLVQAGGSLRLSCAASGSTFLGYTMGWYRQAPGKERELVAAISRRGSSTYYADSVKGRFTISRDNAKNTVYLQMNSLKPEDTAVYYCAAYATSFRDGYWGQGTQVTVSS | high polyreactivity
7 | QVQLVESGGGLVQAGGSLRLSCAASGRTFGRYARGWYRQAPGKETELVAAIRSGASTYYADSVKGRFTISRDNAKNTVYLQKNSLKPEDTAVYYCAVDTLQGARVTSPSGDYDYWGQGTQVTVSS | low polyreactivity
8 | QVQLVESCGGLDQAGGSLRLTCAASGINFWYNTMGWYRQAPRKERELVAAITYGGGSTYYADSVKGRFTISRDNAKNSVYLQMYSMKPVDTAVYYCAVRNWHLIKYLHGYSRYGYWGQGTQVTVSS | low polyreactivity
9 | QVQLVESGGGLVQAGGSLRLSCAAYGNIIYYNAMGWYRQATGKERELVASITWSGGSTYYADSVKGRFTISRDNAKNTVYLQMNSLKPEDTAVYYCAAGYSPPKPYSGGYYYWGQGTQVTVSS | low polyreactivity
10 | QVQLVESGGGLVQAGGSLRLSCAASGSIFAYNAMGRYRPAPGKERELGAAITSDDSTNYADSVKGRFTISRDNAKNSVYLQMNSLKPEDTAVYYCAAYYYYTYIIGYDYCGQGTQVTVSS | low polyreactivity
11 | QVQLVESGGGLVQAGGSLSLSCAAYGRTFYRNAMGWYRQAPGKERELVAAISYSGGSTYYADSVKGRFTISRDNAKNTVYLQMNILKPEDTAVYYCNVLYRVDYYRRVDYWGQGTQVSVSS | high polyreactivity
12 | QVQLVESGGGLVQAGGSLRLSCAASGFIFSSNAMGWYRQAPGKERELVATISFSGESTYYADSVKGRFTISRDNAKNTVYLQMNSLKPEDTAVYYCARRTYYRWYKYGYYDYNYWRQGTQVTVSS | low polyreactivity
13 | QVQLVESGGGLVQAGGSLRLSCAASGSTFGFYMGWYRQAPGKERELVAAIDSSGGITYADSVKGRFTISRDNAKNTVYLQMNSLKPEDTAVYYCNTSYPIAPEDDYWGQGTQVTVSS | low polyreactivity
14 | QVQLVESGGGLVQAGGSLRLSCAASGSTFGRNAMGWYRQAPGKDRELVAAINSGGGTYYADSVKGRFTISRDNAKNTVYLQMNSLKPEDTAVYDCAAARGYGNYVYWGQGTQVTVSS | low polyreactivity
15 | QVQLVESGGGLVQAGGSLRLSCAASGRTFFDYAMGWYRQAPGKERELVAAINWSGGRTYYADSVKGRFTISRDNAKNTVYLQMNTLKPEDTAVYYCAKPFSSNSWSHGYWGQGTQVTVSS | low polyreactivity
16 | QVQLIESGGGLVQAGGSLRLSCAASGYTFGAYAMGWYRQAPGKERELVAGITFIGGSTYYADSVKGRFTISRDNAKNTVYLQMNSLKPEDTAVYYCAAPIAFGYRGTVAKYGYWGQGTQVTVSS | low polyreactivity
17 | QVQRVESGGGLVQAGGRLRLSCAASGSTFRQYAMGWYRQAPGKERELVAAITGGGGSTYYADSVKGRFTISRDNAKNTVYLQMNSLKPEDTAVYYCNAVHRYERDYWGQGTQVTVSS | high polyreactivity
18 | QVQLVESGGGLVQAGGSLRLSCAASGITFYSYAMGWYRQAPGKERELVAAITRGGSTYYADSVKGRFTISRDNAKNTVYLQMNSLKPEDTAVYYCAASPLGGYGYWGQGTQVTVSS | high polyreactivity
19 | QVQLVESGGGLVQAGGSLRLSCAASGSTFETNAMGWYRQAPGKERELVAAIRWSTGNTYYADSVKGRFTISRDNAKNTVYLQMNSLKPEDTAVYDCAAYKGKHDKEGYWGQGTQVTVSS | low polyreactivity
20 | QVQLVESGGGLVQAGGSLRLSCAASGLIFYRNAMGWYRQAPGKERELVAAISVSGGRTYYADSVKGRFTISRDNAKNTVYLQMNSLKPEDTAVYYCAAYGTTRMDYWGQGTQVTVSS | high polyreactivity
21 | QVQLVESGGGLFQAGGSLRLSCADYGSTFRTYVMGWYRQAPGKESEFVAAITNGISTNYADSVKGRFTISRDNAKYTFYLQMNSLKPEDTAVYYCAARVRRGSTQAQYYYWGQGTQVTVSS | high polyreactivity
22 | QVQLVESVGGLVQAGGSLRLSCAASGRIFLYYAIGWYRQAPGKERELVAVISWSGGSTYYADSVKGRFTISRDNAKNTVYLQMNILKPEDTAVYYCAADVVPTWYGYNYDYWGQGTQVTVSS | high polyreactivity

Row | Sequence | polyreactivity (PSR sort gate)
23 | QVQLVESGGGLVQAGGSLRLSCAASGRTFGIYTMGWYRQAPGKERELVASTYYADSVKGRFTISRDNAKNTVYLQMNSLKPEDTAVYYCNVERLKKSQEWYGYPNDYWGQGTQVTVSS | low polyreactivity
24 | QVQLQESGGGLVQAGGSLRLPCAASGNISDAGYMGWYRQAPGKQREFVAAIAAGSNTNYADSVKGSFTISRDNAKNTVYLQMNSLKPEDTAVIFFAVASYARVQYEYWGQGTQVTVNS | low polyreactivity
25 | QVQHVESGGGLVQSGGSLRLSCAASGRNFKFNPMGWYRQPPGKERELVAGITWTGSTTSYADSVKGRFTISRDNATNPVYLQMNSLKPEDTEVYYCDGDKIGFWYHGFYYRGQGTQVTVSS | low polyreactivity
26 | QVQLVESGGGFDQAGGSLRLSCAASGSIFFYYVMGWYRQAPGKERELVAVISSGGGSTYYADSVKGRFTISRDNAKNTVYLQMNSLKPEDTAVYYCAAGTYYKFYYWGQGTQVTVSS | high polyreactivity
27 | QVQLVESGGGLVQAGGSLRLSCSASGSIFVRNFMGGYRQSPGKERELVAGISWNGGSTFYADSVKGRFTISRDNAKNTVYLQMNSLKPEDTAVYYCAARGRHSVYYSFPYYYWGQGTQVTVSS | low polyreactivity
28 | QVQLVESGGGLVQAGGSLRLICAASGSISYEYAMGWYRQAPGKERELVASIDSDGAGTYYADSVKGRFTISLDNAKNTVYLQMNSLKPEDTAVYYCNSEWYYPYYYSRMDYWGQGTQVTVSS | low polyreactivity
29 | QVQLVESGGGLVQAGGSLRLSCAASGRTFGSYAMGWYRQAPGKERELVAAISSGGRTYYADSVKGRFTISRDNAKNTVYLQMNSLKPEDTAVYYCAARLISYKTPGGYNYWGQGTQVTVSS | high polyreactivity
30 | QVQLVESGGGLVQAGGSLRLSCAASGRIFYRNAMGWYRQAPGKERELVAAINWSGGSTYYADSVKGRFTISRDNAKNTVYLQMNSLKPEDTAVYYCATGYRQGEYDYWGQGTQVTVSS | low polyreactivity
31 | QVQLLESGGGLVQAGGSLRLSCAASGFTFRVNAMGWYIQAPGKERELVAAISSGGSTNYADSVKGRFTISRDNAKNTVYLQMNSLKPEDTAVYYCAKRFKYIYFWGQGTQVTVSS | high polyreactivity
32 | QVQLVESGGGLVQAGGSLRLSCGASGRIFRGYAMGWYRQGPGKERELVAAISRRGGSTYYADSVKGRFTISRDNAKNTVYLQMNSLKPVDTAVYYCNADGVHYVAYAGGYWGQGTQVTVSS | high polyreactivity
33 | QVQLVESGGGLVQAGGSLRLSCAASGSIFASNAMGWYRQAPGKERELVAAITTSGDSTYYADSVKGRFTISRDHAKTTVYFQMNSLKPEDTAVYYCATDKGWGLMDSWGQGTQVTVSS | low polyreactivity
34 | QVQLVESGGGLVQAGVSLRLSCAASGSTLISNTMGWNRQAPWKERELVAAITRTGGRTYYADSVKGRFTSSRDTAKNTVDLPMNSLKPEDTAVYYCARYGGYLSLKYDYWGQGTQVTVAS | high polyreactivity
35 | QVQLVESGGGLVQAGGSLRLSCAASGRIFGTNTMGWYRQAPGKERELVAGISSSGDSTYYADSVKGRFTISRDNAKNTVYLQMNSLKPEDTAVYYCAARKGEFWFPQGGYNYWGQGTQVTVSS | low polyreactivity
36 | QVQLVESGVGLVQAGGSLRLTCAASGRIFVTNAKGWYRQAPGKERELVAAITRGVNTNYADSVKGRFTISRDNAKNTVYLQMNSLKPEDTAVYYCAADSSYYYVYGYFPGYYYWGQGTQVTVSS | low polyreactivity
37 | QVQLVESGGGLVQAGGSLRLSCAASGFTFFSNAMGWYRQAPGKEREFVASISRSGGRTYYADSVKGRFTISRDNAKNTVYLQMNSLKPEDTAVYYCAADVPYYLHNHRYGYWGQGTQVTVSS | high polyreactivity
38 | QVQLVESRGGLVQAGGSLRLSCAASGSTFFYNAMGWYRQAPGKEREFVAAITNGVITNYADSVKGRFTISRDNAKNTVYLQMNSLKPEDTAVYYCAALRWSPRSRYQYNYWGQGTQVTVSS | high polyreactivity
39 | QVQLVESGGGLVQAGGSLRISCAASGRTLGAYALGWSRQAPGKERELVAVISRRGGSTYYADSVKGRFTISRVNAKNTVYLQMNSLKPEDSAVYYCARTTLLYRTLSPGEYWGQGTQVTVSS | high polyreactivity
40 | QVQLVESGGGLVLAGGSLRLSSAASGSIFYRNAMGWYRQSPGKERQLVATITVNGGRTYYADSVKGRFTISRDIAKNTVYLQMNSLKPEDTAVYYCAKDVHRWYPYDYCGQGTQVTVSS | low polyreactivity
41 | QVQLVESGGGLVQAGGSLRLSCAASGLTFAFYAMGWYRQAPGKERELVAAISGSGGSTNYADSVKGRFTISRDNAKNTVYLQMNSLKPEDTAVYYCAATYTYSWAYGYWGQGTQVTVSS | high polyreactivity
42 | QVQLVESGGGLVQAGGSLRLSCAASGRTFRDNPMGWYRHAPGKERELVAAISGRGSSTYYADSVKGRFTIARDNAKKTVYLQMNSLKPEDTAVYYCAALPASVRRPGWHDYWGQGTQVTVSS | high polyreactivity
43 | QVQLVESGGGLVQAGGSLRLSCAASGSTFGPYARGWSRQAPGKERELVSTITRNGGSTYYADSVKGRFTISRDNAKNTVYLQMNSLKPEDTAVYYCNAEGRWSSFTQRMDYWGQGTQVTVSS | low polyreactivity
